Where “and” joins values, the source holds several entries; their conditions need not be identical. Equal entries are not always repeated.
B1: MBP-CBD: CHP-binding region of human NHE1 (residues 503-545) fused to maltose-binding protein at its amino-terminus (domain or fragment, UniProt P19634 503-545, looked up)
chain: VDLLAVKKKQETKRSINEEIHTQFLDHLLTGIEDICGHYGHHH
notes: also called MBP-CBD^NHE1; NHE1-CBD; source: E. coli BL21 (DE3), purified (IMAC, SEC on Superdex 200); not shown: MBP, N-terminal, kept; His8, C-terminal, kept
B2: MBP-CBD: CHP-binding region of human NHE1 (residues 503-545) fused to maltose-binding protein (domain or fragment, UniProt P19634 503-545, looked up)
chain: VDLLAVKKKQETKRSINEEIHTQFLDHLLTGIEDICGHYGHHH
notes: The TEV site is printed without Tyr; No site for removal of the C-terminal His8 is described; also called MBP-CBD^NHE1; NHE1-CBD; source: E. coli BL21 (DE3), purified (IMAC, SEC); not shown: MBP (E. coli malE; UniProtKB P0AEX9 residues 27-393), N-terminal, kept
B3: human calcineurin B homologous protein 3 (CHP3), hexa-histidine tagged (natural protein, UniProt Q96BS2 2-214, looked up)
chain: GAAHSASEEVRELEGKTGFSSDQIEQLHRRFKQLSGDQPTIRKENFNNVPDLELNPIRSKIVRAFFDNRNLRKGPSGLADEINFEDFLTIMSYFRPIDTTMDEEQVELSRKEKLRFLFHMYDSDSDGRITLEEYRNVVEELLSGNPHIEKESARSIADGAMMEAASVCMGQMEPDQVYEGITFEDFLKIWQGIDIETKMHVRFLNMETMALCH
B4: human calcineurin B homologous protein 3 (CHP3), hexa-histidine tagged (natural protein, UniProt Q96BS2 2-214, looked up)
chain: GAAHSASEEVRELEGKTGFSSDQIEQLHRRFKQLSGDQPTIRKENFNNVPDLELNPIRSKIVRAFFDNRNLRKGPSGLADEINFEDFLTIMSYFRPIDTTMDEEQVELSRKEKLRFLFHMYDSDSDGRITLEEYRNVVEELLSGNPHIEKESARSIADGAMMEAASVCMGQMEPDQVYEGITFEDFLKIWQGIDIETKMHVRFLNMETMALCH
modifications: fluorescent label NT647, randomly attached, labelling efficiency about 30% (MST only)

What was measured:
Conditions in all cases: both partners purified
[1] = biological target: B3; experiment: ITC; CHP3 (nominal 200 uM) in the syringe injected into MBP-CBD (nominal 20 uM) in the cell, 57 injections, 25 °C; 20 mM HEPES, 150 mM NaCl, 10 mM MgCl2, 5 mM TCEP, pH 7.2; biological triplicates, raw data: each data set fitted freely (KD, dH, n, offset)
[2] = biological target: B3; experiment: ITC; the same titrations (CHP3 in the syringe, MBP-CBD in the cell, 25 °C, ITC buffer pH 7.2) refitted one by one after the triple-shift correction: corrected active concentrations of CHP3 and MBP-CBD, dH fixed to the average of the raw fits, n = 1 by the correction
[3] = biological target: B4; experiment: ITC; 200 uM CHP3 in the syringe injected into 20 uM MBP-CBD in the cell, 57 injections, 25 °C; 20 mM HEPES, 150 mM NaCl, 10 mM MgCl2, 5 mM TCEP, pH 7.2; global fit of three concentration-corrected biological replicates assuming n = 1
[4] = biological target: B4; experiment: MST; NT647-labelled CHP3 at 10 nM, MBP-CBD titrated in 16 steps of 1:1 dilution; 20 mM HEPES, 150 mM NaCl, 0.05% Tween-20, 10 mM MgCl2, 5 mM TCEP, pH 7.2; 22 °C; bimolecular binding model; three biological replicates of five technical replicates each
[5] = biological target: B1; experiment: ITC; CHP3 (nominal 200 uM) in the syringe injected into MBP-CBD (nominal 20 uM) in the cell, 57 injections, 25 °C; 20 mM HEPES, 150 mM NaCl, 10 mM MgCl2, 5 mM TCEP, pH 7.2; biological triplicates, raw data: each data set fitted freely (KD, dH, n, offset)
[6] = biological target: B1; experiment: ITC; the same titrations (CHP3 in the syringe, MBP-CBD in the cell, 25 °C, ITC buffer pH 7.2) refitted one by one after the triple-shift correction: corrected active concentrations of CHP3 and MBP-CBD, dH fixed to the average of the raw fits, n = 1 by the correction
[7] = biological target: B2; experiment: SEC; analytical SEC, Superdex 200 10/300 GL; 20 uM samples mixed equimolar (250 ul each); 20 mM HEPES, 150 mM NaCl, 1 mM TCEP, pH 7.2; peak fractions checked by SDS-PAGE

Binder: B1
Kd [1]: 3 nM and 2.4 nM and 4.5 nM and 3.3 nM
Kd [2]: 3.1 nM and 2.1 nM and 5.1 nM and 3.4 nM

Binder: B2
Kd [3]: 3 nM
Kd [4]: 62.7 nM and 54.8 nM and 49 nM and 55.5 nM

Binder: B3
stoichiometry N [5]: 0.97 and 1.2 and 1.1 and 1.09
stoichiometry N [6]: 1

Binder: B4
stoichiometry N [7]: 1

— paper PMC6172220, “Calcineurin B homologous protein 3 binds with high affinity to the CHP binding domain of the human sodium/proton exchanger NHE1” (Scientific Reports, 2006)
